Experimental data taken from US12576154B2, “Conjugates of PSMA-binding moieties with cytotoxic agents” (PHILOCHEM AG, priority 2022, dated 2026).

Assay: Body weight change during comparative therapy experiment (Example 4)
Type: in vivo, mice
Conditions: 250 nmol/kg i.v. on days 8, 10, 12, n=5
Protocol: HT1080.hPSMA tumor cells were grown to 90% confluence and detached with Trypsin-EDTA 0.05%. Cells were resuspended in Hank's Balanced Salt Solution (HBSS) at a 5×10^7 cells/mL density. 100 μL of HT1080.hPSMA cells (5×10^6 cells) were injected subcutaneously in the right flank of female athymic Balb/c AnNRj-Foxn1 mice (6 to 8 weeks of age). Tumors were grown until volumes of […].
Tumor-bearing mice were randomized into groups of 5 and 0.1 mL of 50 μM solutions (2% DMSO, PBS, 250 nmol/kg) of the four conjugates (1 to 4), or saline solution (0.9% NaCl) was injected intravenously three times with 1-day break in between (days 8, 10, and 12 after tumor implantation).

CC[C@H](C)[C@@H]([C@@H](CC(=O)N1CCC[C@H]1[C@H](OC)[C@@H](C)C(=O)N[C@H](C)[C@@H](O)c1ccccc1)OC)N(C)C(=O)[C@@H](NC(=O)[C@H](C(C)C)N(C)C(=O)OCc1ccc(NC(=O)[C@@H]2CCCN2C(=O)CNC(=O)CCCCCN2C(=O)CC(SC[C@H](N)C(=O)NCCCCCC(=O)NC[C@H]3CC[C@H](C(=O)N[C@@H](Cc4ccc5ccccc5c4)C(=O)NCCCC[C@H](NC(=O)N[C@@H](CCC(=O)O)C(=O)O)C(=O)O)CC3)C2=O)cc1)C(C)C (stereo partly shown) [Conjugate 1]
Toxicity (body weight change %): lowest toxicity
